Assay: yeast display, Sf9 membrane polyspecificity reagent, FACS + sequencing; frameworks hold sequencing errors
Method in brief: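 In a synthetic yeast display library (Saccharomyces cerevisiae BJ5465), nanobody expression was induced with galactose for 36–48 hours. FACS gates were set low and high (top ~1%) using anti-HA fluorescence for expression and streptavidin fluorescence for binding of the Sf9 membrane reagent. Each polyreactivity label is drawn from the gate of origin.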

Sequence: QVQLVESGGGLVQAGGSLRLSCAASGRIFYYYAMGWYRQAPGKERELVAAITWNGTSTYYADSVKGRFTISRDNAKNTVYLQMNSLKPEDTAVYYCAAEGWVGAWWYVLDVRYDYWGQGTQVTVSS
- polyreactivity (PSR sort gate): low polyreactivity

Sequence: QVQLVESGGGLVQAGGSLRLSCAASGRIFYYYAMGWYRQAPGKERELVATISRSGGSTYYADSVKGRFTISRDNAKNTVYLQMNSLKPEDTAVYYCAAGYGPSGYTRYYWGQGTQVTVSS
- polyreactivity (PSR sort gate): high polyreactivity

Sequence: QVQLVESGGGLVQAGGSLRLSCAASGRIFYYYTMAWYRQAPGKERELVAAISWGGVNTDYADSVKGRFTISRDNAKNTVYLQMNSLKPEDTAVYYCAAGRWSVGTYDYWGQGTQVTVSS
- polyreactivity (PSR sort gate): low polyreactivity

Sequence: QVQLVESGGGLVQAGGSLRLSCAASGRIFYYYVMGWYRQAPGKERELVAAISSRGGCTYYADSVKGRFTISRDNAKNTVYLQMNSLKPEDTAVYYCAAEYGSISLRYPYYWRYDYWGQGTQVTVSS
- polyreactivity (PSR sort gate): high polyreactivity

Sequence: QVQLVESGGGLVQAGGSLRLSCAASGRIGRNAMGWYRQAPVKERELVATISWSAGRTFYADSVKGRFTISRDNAKNTVYLQMNSLKPEDTAVYYCAAGGWQRGYYWGQGTQVTVSS
- polyreactivity (PSR sort gate): high polyreactivity

Sequence: QVQLVESGGGLVQAGGSLRLSCAASGRIGVNAMGWYRPAPGKERELVAAITGGASTYYADSVKGRFTISRDNAKNTVYLQMNSLKPEDTAVYYCNATGEYFGYLDLDYDYWGQGTQVTVSS
- polyreactivity (PSR sort gate): low polyreactivity

Sequence: QVQLVESGGGLVQAGGSLRLSCAASGRIIAGYTMGWYRQAPGKERELVAAIRSSGRTHYADSVKGRFTISRDNAKNTVYLQMNSLKPEDTAVYYCAARWTYTFAYRFDYWGQGTQVTVSS
- polyreactivity (PSR sort gate): high polyreactivity

Sequence: QVQLVESGGGLVQAGGSLRLSCAASGRIIGHYAMGWYRQAPGKERDLVAAISRGGSTYYADSVKGRFTISRDNAKNTVYLQKTSLKPEDTAVYYCAVRSGRRNYDRPAFGYWGQGTQVTVSS
- polyreactivity (PSR sort gate): high polyreactivity

Sequence: QVQLVESGGGLVQAGGSLRLSCAASGRIIGINAMGWYRQAPGKERELVATITSGGDTNYADSVKGRFTISRDNAKNTVYLQMNSLKPEDTAVYYCNAESYGLGFGYDYWGQGTQVTVSS
- polyreactivity (PSR sort gate): low polyreactivity

Sequence: QVQLVESGGGLVQAGGSLRLSCAASGRIIGLYALGWYRQATGKERELVAAISSAGSTYYADSVKGRFTISRDNAKNTVYLQMNSLKPEDTAVYYCAKSRYRGYDYWGQGTQVTVSS
- polyreactivity (PSR sort gate): low polyreactivity

Sequence: QVQLVESGGGLVQAGGSLRLSCAASGRIIGYYAMGWYRQAPGKERELVAAISRRGGSTYYADSVKGRFTISRDNAKNTVYLQINSLKPEDTAVYYCNADRVLTRPRYDYWGQGTQVTVSS
- polyreactivity (PSR sort gate): low polyreactivity

Sequence: QVQLVESGGGLVQAGGSLRLSCAASGRIIGYYAMGWYRQAPGKERELVATINYSGGRTYYADSVKGRFTISRDNAKNTVYLQMNSLKPEDTAVYYCNARESGRGSHDDYWGHGTQVTVSS
- polyreactivity (PSR sort gate): high polyreactivity

Sequence: QVQLVESGGGLVQAGGSLRLSCAASGRIILLYTMGWYRQAPGKERELVAAISRSGGITYADSVKGRFTISRDNAKNTVYLQMNSLKPEDTAVYYCAKGGSSHAKGHFDYWGQGTQVTVSS
- polyreactivity (PSR sort gate): low polyreactivity

Sequence: QVQLVESGGGLVQAGGSLRLSCAASGRIILVYAMGWYRQAPGKERELVAAISSGGSTYYADSVKGRLTISRDNAKNTVYLQMNSLKPEDTAVYYCAARTAVGPIRSYWYDYWGQGTQVTVSS
- polyreactivity (PSR sort gate): low polyreactivity

Sequence: QVQLVESGGGLVQAGGSLRLSCAASGRIIPYYAMGWYRQAPGKERELVAAISSSGGRTYYADSVKGRFTISRDNAKNTVYLQMNSLKPEDTAVYYCAAGFPTFGWDKVRFIMYYWGQGTQVTVSS
- polyreactivity (PSR sort gate): high polyreactivity

Sequence: QVQLVESGGGLVQAGGSLRLSCAASGRIIQYNAMGWYRQAPGKERELVAAISWRSGRTYYADSVKGRFTISRDNAKNTVYLQMNSLKPEDTAVYYCAATSRTSWYGYWGQGTQVTVSS
- polyreactivity (PSR sort gate): high polyreactivity

Sequence: QVQLVESGGGLVQAGGSLRLSCAASGRIIRGNAMGWYRQAPGKERELVAAISVRGGNTRYADSVKGRFTISRDNAKNSVYLQMNSLKPEDTAVYFCKKRSYLPEMEYWGQGSQVTVSS
- polyreactivity (PSR sort gate): low polyreactivity

Sequence: QVQLVESGGGLVQAGGSLRLSCAASGRIISSNAMGWYRQAPGKEREFVAAISWRTGSTYYADSVKGRFTISRDNAKNTVYLQMNILKPEDTAVYYCNKRNGSYCYPYYYWGQGTQVTVSS
- polyreactivity (PSR sort gate): high polyreactivity

Sequence: QVQLVESGGGLVQAGGSLRLSCAASGRIISVYAMGWYRQAPGKERELVATITGGNTNYADSVKGRFTISRDNAKNTVYLQMNSLKPEDTAVYYCANQFLPSGVYYEYDSWGQGTQVTVSS
- polyreactivity (PSR sort gate): low polyreactivity

Sequence: QVQLVESGGGLVQAGGSLRLSCAASGRIITAYAMGWNRQAPGKEREFVAAINVSGGSTYYADSVKGRFTISRDNAKNTVYLQMNSLKPEDTAVYYCNADYYYYDIYWWKMDYWGQGTQVTVSS
- polyreactivity (PSR sort gate): low polyreactivity

Sequence: QVQLVESGGGLVQAGGSLRLSCAASGRIITINAMGWYRQAPGKERELVAAITGSAASTYYADSVKGRFTISRDNAKNTVYLQMNILKPEDTAVYYCAVDRRPYSGHGYDYWGQGTQVTVSS
- polyreactivity (PSR sort gate): high polyreactivity

Sequence: QVQLVESGGGLVQAGGSLRLSCAASGRIITKYNTMGCYRPATGIEMELVAAINRSAGSTYYADSVKGRFTISRDNAKNTVYLQMNSLKTEDTAVYYCAAKRGASYGSSLGAPRRHYDEYWGQGTQVTVSS
- polyreactivity (PSR sort gate): low polyreactivity

Sequence: QVQLVESGGGLVQAGGSLRLSCAASGRIITLYAMGWYRQAPGKERELVAGISRSGGSTYYADSVKGRFTISRDNAKNTVYLQMNSLKPEDTAVSYCNAVPIYYAWRRNKPFDYWGQGTQVTVSS
- polyreactivity (PSR sort gate): low polyreactivity

Sequence: QVQLVESGGGLVQAGGSLRLSCAASGRIITYYAMGWYRQAPGKERELVAVISSVGGTYYADSVKGRFTISRDNAKNTVYLQMNSLKPEDTAVYYCAVGKIWSRRSSTSRFGYWGQGTQVTVSS
- polyreactivity (PSR sort gate): high polyreactivity

Sequence: QVQLVESGGGLVQAGGSLRLSCAASGRIIVPYGMGWYRQAPGKERELVAAITTGGSTNYADSVKGRFTISRDNAKNTVYLQMNSLKPEDTAVYYCAVDWYPQLIYSFNSELEYWGQGTQVTVSS
- polyreactivity (PSR sort gate): low polyreactivity

Sequence: QVQLVESGGGLVQAGGSLRLSCAASGRIIWGYAMGWYRQAPGKERELVAGITYSGGSTYYADSVKGRFTISRDNAKNTVYLQMNSLKPEDTAVYYCAAAKSYRSGSWYEYWGQGTQVTVSS
- polyreactivity (PSR sort gate): high polyreactivity

Sequence: QVQLVESGGGLVQAGGSLRLSCAASGRIIWINAMGWDRQAPGKERELVATITKRGGRTYYADSVKGRFTISRDNAKNTVYLQMNSLKPEDTAVYSCNTGHEARHSQYQGGVYQDMGYWGQGTQVTVSS
- polyreactivity (PSR sort gate): low polyreactivity

Sequence: QVQLVESGGGLVQAGGSLRLSCAASGRIIWPYAIGWYRQAPGKERELFATITSGGRTNYADSVKGRFTISRDNAKNTVYLQMNSLKPEDTAVYYCIADHWLYYGAGYDYWGQGTQVTVSS
- polyreactivity (PSR sort gate): low polyreactivity

Sequence: QVQLVESGGGLVQAGGSLRLSCAASGRIIYAYAMGWYRQAPGKERELVAAITIGGNTNYADSVKGRFTISRDNAKNTVYLQMNSLKPEDTAVYYCNARNYYYPWRGYHVVGSNDLGYWGQGTQVTVSS
- polyreactivity (PSR sort gate): low polyreactivity

Sequence: QVQLVESGGGLVQAGGSLRLSCAASGRIIYGNTMGWYRQAPGKEREFVATITRSGGSTYYADSVKGRFTISRDNAKNTVYLQMNSLKPEDTAVYYCNAQPSVYYGRWGLNYVYWGQGTQVTVSS
- polyreactivity (PSR sort gate): high polyreactivity

Sequence: QVQLVESGGGLVQAGGSLRLSCAASGRIIYSNGMGWYRQAPGKERELVAAISSGGSTYNADSVKGRFTISRDNAKNTVYLQMNSLKPEDTAVYYCAADIDYERDRYDYWGQGSQVTVSS
- polyreactivity (PSR sort gate): low polyreactivity

Sequence: QVQLVESGGGLVQAGGSLRLSCAASGRIIYTYEMGWYRQAPGKERELVAAISGSGGSTYYADSVKGRFTISRDNSKTTLYLQMNRLKPEDTGVYYCNGAYYGYENLYKRGYWGQGSQVTVSS
- polyreactivity (PSR sort gate): high polyreactivity

Sequence: QVQLVESGGGLVQAGGSLRLSCAASGRILAGYAMGWYRQAPGKERELVAAITRGGTTYYADSVKGRFTISRDNAKNSVYLQMNSLKPEDTAVVYTVSSAQYDYCGQGTQVTVSS
- polyreactivity (PSR sort gate): low polyreactivity

Sequence: QVQLVESGGGLVQAGGSLRLSCAASGRILAGYAMGWYRQAPGKERELVAVISVGTGSTYYADSVKGRFTISRDNAKNTVYLQMNSLKPEDTAVYYCAADPGPYKELEYGYWGQGTQVTVSS
- polyreactivity (PSR sort gate): low polyreactivity

Sequence: QVQLVESGGGLVQAGGSLRLSCAASGRILAIYAKGWYRQAPGKERELVAGITYSAGSTYYADSVKGRFTISRDNAKNTVYLQMNSLKPEDTAVYYCAALEYNSHRYGYDYWGQGTQVTVSS
- polyreactivity (PSR sort gate): low polyreactivity

Sequence: QVQLVESGGGLVQAGGSLRLSCAASGRILASYAMGWYRQAPGKERELVAAIRYRGSTSYADSVKGRFTISRDNAKNTVYLQMNSLKPEDTAVYYCAAKWHVRGRGARYRYDYDYWGQGTQVTVSS
- polyreactivity (PSR sort gate): low polyreactivity

Sequence: QVQLVESGGGLVQAGGSLRLSCAASGRILASYAMGWYRQAPGKERELVAAISRSGGSTYYADSVKGRFTISRDNAKNTVYLQMNSLKPEDTAVYYCAAKYPQKTPVNSYGILDSWGQGTQVTVSS
- polyreactivity (PSR sort gate): high polyreactivity

Sequence: QVQLVESGGGLVQAGGSLRLSCAASGRILAYYAMAWYRQAPGKERELVAAITSGGGSTYYADSVKGRFTISRDNAKNTVYLQMNSLKPEDTAVYYCAADAYVSSQPMDYWGQGSQVTVSS
- polyreactivity (PSR sort gate): high polyreactivity

Sequence: QVQLVESGGGLVQAGGSLRLSCAASGRILAYYAMGWYRQAPGKERELVARISGSGTSTYYADSVKGRFTISRDNAKNTVYLQMNSLKPEDTGVYYCAATYYRGGRSNGPAWWHEYWGQGTQVTVSS
- polyreactivity (PSR sort gate): high polyreactivity

Sequence: QVQLVESGGGLVQAGGSLRLSCAASGRILAYYVMGWYRQAPGKERELVAGINWSGGSTYYADSVKGRFTISRDNAKHTFYLQMNSLKPEDTGVYNCAARFVGVRDGYYYWGQGTQVTVSS
- polyreactivity (PSR sort gate): high polyreactivity

Sequence: QVQLVESGGGLVQAGGSLRLSCAASGRILDAYTMGWYRQAPGKERQLVAAISASGVSTYYADSVKGRFTISRDNAKNTVYLQMNSLKPEDTAVYYCAKDYYQQTGFLEYDYWGHGTQVTVSS
- polyreactivity (PSR sort gate): low polyreactivity

Sequence: QVQLVESGGGLVQAGGSLRLSCAASGRILDGYAMGWYRQAPGKERELVAAISSRGGRTYYADSVKGRFTISRDNAKNTVYLQMNSLKPEDTAVYYCAADFSKSRRPIRFYYWGQGTQVTVSS
- polyreactivity (PSR sort gate): high polyreactivity

Sequence: QVQLVESGGGLVQAGGSLRLSCAASGRILEGYAMGWYRQAPGKERELVAAISFSTTTTYYADSVKGRFTISRDNAKNTVYLQMNSLKPEDTAVYYCAADSQQSDYDYWGQGTQVTVSS
- polyreactivity (PSR sort gate): high polyreactivity
